Data from patent US7335814B2, “Transgenic cells expressing glucosyltransferase nucleic acids” (The University of York, priority 2000, dated 2008).

Legend:
Assay in all cases: purified protein, by the assay type
Conditions in all cases: other: glucose ester formation; pH 7.0; 30.0 °C
[1] = substrate: O=C(O)C=Cc1ccccc1
[2] = substrate: O=C(O)/C=C/c1ccc(O)cc1
[3] = substrate: COc1cc(/C=C/C(=O)O)ccc1O

B1: recombinant GTase A911 (Arabidopsis thaliana) (protein)
chain: MGSSEGQETHVLMVTLPFQGHINPMLKLAKHLSLSSKNLHINLATIESARDLLSTVEKPRYPVDLVFFSDGLPKEDPKAPETLLKSLNKVGAMNLSKIIEEKRYSCIISSPFTPWVPAVAASHNISCAILWIQACGAYSVYYRYYMKTNSFPDLEDLNQTVELPALPLLEVRDLPSFMLPSGGAHFYNLMAEFADCLRYVKWVLVNSFYELESEIIESMADLKPVIPIGPLVSPFLLGDGEEETLDGKNLDFCKSDDCCMEWLDKQARSSVVYISFGSMLETLENQVETIAKALKNRGLPFLWVIRPKEKAQNVAVLQEMVKEGQGVVLEWSPQEKILSHEAISCFVTHCGWNSTMETVVAGVPVVAYPSWTDQPIDARLLVDVFGIGVRMRNDSVDGELKVEEVERCIEAVTEGPAAVDIRRRAAELKRVARLALAPGGSSTRNLDLFISDITIA
Km [1]: 50 µM
Km [2]: 390 µM
Vmax [2]: 11.10 nkat/mg
Km [3]: 340 µM
